Results taken from US20160289270A1, “Methods, Peptides and Antibodies for Preventing, Treating and Diagnosing an Inflammatory Condition” (WESTFAELISCHE WILHELMS-UNIVERSITAET MUENSTER, priority 2013, published 2016).

molecular target: TLR4/MD2 (Homo sapiens, UniProt O00206+Q9Y6Y9); experiment: Modified S100A9-ELISA: binding of S100A9-wt and mutant proteins to plate-coupled TLR4/MD2; conditions: 2 μg/ml protein, two hours at room temperature, absorbance at 450 nm, FIG. 4B/4C
Description: Binding of S100A9 proteins to TLR4/MD2 was analysed by a modified S100A9-ELISA. Briefly, TLR4/MD2 was coupled to the wells of a 96-well plate and served as capturing molecule. After blocking of the unspecific binding sites by PBS/5% skim milk powder plates were washed three times. S100A9-wt or mutant S100A9 proteins were added at a concentration of 2 μg/ml each in the presence and absence of 100 μM Calcium and incubated for two hours at room temperature. Unbound S100A9 was removed by washing the plates for three times followed by the addition of a primary anti-S100A9-antibody (1 μg/ml, polyclonal, rabbit). After a washing step the secondary anti-rabbit-IgG-antibody coupled to HRP (1 μg/ml from Cell Signalling) was added. TMB was used as substrate for HRP to quantify binding by absorbance readings at 450 nm in an ELISA reader (Anthos Mikrosysteme).

Chain of TLR4/MD2 (O00206 24-631 limits assumed): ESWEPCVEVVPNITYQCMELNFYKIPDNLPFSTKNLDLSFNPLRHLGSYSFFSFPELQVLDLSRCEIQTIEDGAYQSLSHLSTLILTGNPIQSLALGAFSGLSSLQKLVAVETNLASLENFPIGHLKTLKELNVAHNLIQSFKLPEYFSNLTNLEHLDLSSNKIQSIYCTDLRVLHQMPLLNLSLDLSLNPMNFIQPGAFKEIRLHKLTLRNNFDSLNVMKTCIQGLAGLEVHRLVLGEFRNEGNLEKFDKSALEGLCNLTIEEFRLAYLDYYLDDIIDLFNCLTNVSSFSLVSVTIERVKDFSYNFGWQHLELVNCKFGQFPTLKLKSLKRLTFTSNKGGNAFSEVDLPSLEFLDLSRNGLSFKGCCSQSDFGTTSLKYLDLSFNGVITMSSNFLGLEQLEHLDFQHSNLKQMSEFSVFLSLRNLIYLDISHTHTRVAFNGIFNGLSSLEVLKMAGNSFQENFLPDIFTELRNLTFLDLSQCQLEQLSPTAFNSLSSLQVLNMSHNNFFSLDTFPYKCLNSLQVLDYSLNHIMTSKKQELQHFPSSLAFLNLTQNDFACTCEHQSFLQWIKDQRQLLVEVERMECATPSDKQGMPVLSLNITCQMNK
Chain of TLR4/MD2 (Q9Y6Y9 17-160 limits assumed): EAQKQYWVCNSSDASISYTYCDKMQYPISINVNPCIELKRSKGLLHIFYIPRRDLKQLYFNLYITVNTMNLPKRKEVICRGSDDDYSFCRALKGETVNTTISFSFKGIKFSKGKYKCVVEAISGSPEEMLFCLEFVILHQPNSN

| Molecule | binding to the receptor TLR4/MD2 compared to non-mutated protein (S100A9 wt) |
| --- | --- |
| S100A9E64A: purified recombinant S100A9 mutant, alanine instead of E64 (protein) MTCKMSQLERNIETIINTFHQYSVKLGHPDTLNQGEFKELVRKDLQNFLKKENKNEKVIEHIMADLDTNADKQLSFEEFIMLMARLTWASHEKMHEGDEGPGHHHKPGLGEGTP | weaker binding |
| S100A9D65A: purified recombinant S100A9 mutant, alanine instead of D65 (protein) MTCKMSQLERNIETIINTFHQYSVKLGHPDTLNQGEFKELVRKDLQNFLKKENKNEKVIEHIMEALDTNADKQLSFEEFIMLMARLTWASHEKMHEGDEGPGHHHKPGLGEGTP | weaker binding |
| S100A9E77A: purified recombinant S100A9 mutant, alanine instead of E77 (protein) MTCKMSQLERNIETIINTFHQYSVKLGHPDTLNQGEFKELVRKDLQNFLKKENKNEKVIEHIMEDLDTNADKQLSFAEFIMLMARLTWASHEKMHEGDEGPGHHHKPGLGEGTP | weaker binding |
| S100A9K72A: purified recombinant S100A9 mutant, alanine instead of K72 (protein) MTCKMSQLERNIETIINTFHQYSVKLGHPDTLNQGEFKELVRKDLQNFLKKENKNEKVIEHIMEDLDTNADAQLSFEEFIMLMARLTWASHEKMHEGDEGPGHHHKPGLGEGTP | not significantly different |

Continued, values first:

| binding to the receptor TLR4/MD2 compared to non-mutated protein (S100A9 wt) | Molecule |
| --- | --- |
| not significantly different | S100A9R85A: purified recombinant S100A9 mutant, alanine instead of R85 (protein) MTCKMSQLERNIETIINTFHQYSVKLGHPDTLNQGEFKELVRKDLQNFLKKENKNEKVIEHIMEDLDTNADKQLSFEEFIMLMAALTWASHEKMHEGDEGPGHHHKPGLGEGTP |
| weaker binding | S100A9Q73A: purified recombinant S100A9 mutant, alanine instead of Q73 (protein) MTCKMSQLERNIETIINTFHQYSVKLGHPDTLNQGEFKELVRKDLQNFLKKENKNEKVIEHIMEDLDTNADKALSFEEFIMLMARLTWASHEKMHEGDEGPGHHHKPGLGEGTP |

molecular target: T1, his-tagged rhTLR4/MD2 (Homo sapiens, UniProt O00206+Q9Y6Y9); experiment: Immunoprecipitation on TLR4/MD2-coupled beads, eluates analysed by MALDI-TOF mass spectrometry; type: binding; conditions: beads with TLR4/MD2, 3 h at 4° C., 1 mM Calcium, elution with 10 mM TRIS/2 mM EDTA
T1 construct: purchased R&D SYSTEMS
T1 sequence (O00206 24-631 limits assumed): as the sequence (O00206 24-631 limits assumed) above
T1 sequence (Q9Y6Y9 17-160 limits assumed): as the sequence (Q9Y6Y9 17-160 limits assumed) above
Description: Anti-His antibody (5 μL, 0.5 mg/mL, Invivogen) and his-tagged rhTLR4/MD2 (5 μL, 1 mg/mL, carrier free, R&D SYSTEMS) were mixed and coupled to Protein A/G Agarose ([…], Thermo Scientific). Trypsin digested peptides of S100A9 were added for 3 h at 4° C. in the presence of 1 mM Calcium. After washing of the beads in HBS/1 mM Ca-buffer for three times bound peptidic fragments were eluted by addition of 10 mM TRIS/2 mM EDTA-buffer and analysed by ESI and MALDI-TOF-mass spectrometry. Identical experiments were performed to analyze the binding of the chemical synthesized peptides of S100A9 (aa63-79), S100A8 (aa55-71) and the corresponding control peptides aa63-79 A5 and aa55-71 A3.

| Molecule | binding to TLR4/MD2 (peptide detected in eluate by MALDI-TOF mass spectrometry) |
| --- | --- |
| 55-71: synthetic peptide, positions 55-71 of human S100A8, complete C-terminal EF hand, FKELDINTDGAVNFQEF | able to bind to TLR4/MD2 |
| 63-79: synthetic peptide, amino acid positions 63-79 of S100A9, complete C-terminal EF hand, MEDLDTNADKQLSFEEF | able to bind to TLR4/MD2 |

Now from value to molecule:

| binding to TLR4/MD2 (peptide detected in eluate by MALDI-TOF mass spectrometry) | Molecule |
| --- | --- |
| specific interaction with TLR4/MD2 | No. 15: tryptic fragment of human S100A9, amino acid sequence from positions 73 to 85, portion of the C-terminal EF Hand (QLSFEEFIMLMAR; UniProt P06702 73-85, looked up, fragment) |
| no binding could be detected | 63-79 A5: control peptide, S100A9 positions 63-79 with E64A, D65A, Q73A, E77A and K72A exchanged to alanine (MAALDTNADAALSFAEF) [reference compound] |
